Here are results for two substances from patent US20230064978A1, “CYCLIC PEPTIDE RECEPTOR LANTHIONINE SYNTHETASE C-LIKE PROTEIN (LANCL) AND USES THEREOF” (LATERAL IP PTY LTD, priority 2019, published 2023).

Assay type in all cases: binding
One assay addresses T1, human recombinant LANCL2 (Homo sapiens, UniProt Q9NS86).
T1 construct: human recombinant LANCL2 (amino acid residues 1-450); GST (N); purchased ABCAM ab163277; host or cells: wheat germ
T1 sequence (Q9NS86 1-450): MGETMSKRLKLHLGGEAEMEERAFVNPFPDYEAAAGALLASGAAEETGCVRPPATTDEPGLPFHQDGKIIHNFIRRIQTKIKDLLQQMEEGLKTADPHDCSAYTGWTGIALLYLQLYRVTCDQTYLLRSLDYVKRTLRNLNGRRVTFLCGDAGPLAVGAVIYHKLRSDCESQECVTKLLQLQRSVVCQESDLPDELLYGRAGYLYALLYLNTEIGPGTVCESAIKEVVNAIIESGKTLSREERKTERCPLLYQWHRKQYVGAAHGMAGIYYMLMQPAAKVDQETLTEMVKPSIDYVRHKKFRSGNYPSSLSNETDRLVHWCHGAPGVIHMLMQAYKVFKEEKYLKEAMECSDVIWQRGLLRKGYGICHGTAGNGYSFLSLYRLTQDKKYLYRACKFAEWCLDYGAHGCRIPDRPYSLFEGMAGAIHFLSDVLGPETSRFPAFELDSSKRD
Kind of assay: In-gel fluorescence: photolabelling of recombinant LANCL2 with PAL probe, with or without excess LAT8881. Here is the method:
An in-gel fluorescence protocol was followed to determine whether the cyclic peptides bound to LANCL2 and LANCL3. Briefly:
1. LANCL2 and LANCL3 Labelling, Assay on 96 Well Plate, Volume of the Reaction 40 μl in PBS
• 1 μg/well of human recombinant LANCL2 (amino acid residues 1-450; ABCAM catalog no. ab163277, ˜0.07 mg/ml; expressed in wheat germ and incorporating an N-terminal GST tag; UniProt Accession no: Q9NS86);
• Vehicle DMSO • ±LAT8881 (a cyclic peptide fragment of human growth hormone; SEQ ID NO:1) • SEQ ID NO:1 as competitor @ 50, 100 or 200 μM, pre-incubation 10 min, 4 μl of a stock solution 10-fold concentrated • ±LAT9991-PAL probes @ 1 μM, incubation 30 min at room temperature on a plate agitator (protected from light), 4 μl of a stock solution @10 μM
• Irradiation @ 365 nm 20 min (4° C., on a support containing ice) • Transfer 40 μl in a clean Eppendorf tube
• Reduction: DTT 10 mM, 30 min @ 56° C. • Alkylation: Iodoacétamide 30 mM, 45 min @ RT Click-iT AzideTamra of 60 μL samples
• Acetone Precipitation −20° C. ON • Dry pellet resuspended in 30 μL 1% SDS in 50 mM Tris-HCl pH 7.5 • Photolabeled LANCL1 was tagged with tetramethylrhodamine (TAMRA) azide @100 μM TAMRA azide by copper click chemistry using the Click-iT Protein Reaction Buffer Kit (ThermoFisher Scientific) for 30 minutes • Precipitation using the chloroform-methanol method, pellet was air-dried for 10 min at room temperature, resuspended in 30 μL SDS loading buffer (Bio Rad XT Sample Buffer containing 2.5% v/v 2-mercaptoethanol) and heated (60° C., 30 min)
• SDS-PAGE (4-15% Criterion™ TGX Stain-Free™ Protein Gel, Bio Rad) • Analyzed by in-gel fluorescence scanning using a ChemiDoc™ MP Imaging System (Bio Rad) with a green LED light as an excitation source and a BP600/20 nm emission filter

In assay [1] the target is T2, LANCL1 (Rattus norvegicus, UniProt Q9QX69). Kind of assay: Streptavidin pull-down of probe-labelled proteins from spinal cord microsomal fraction, anti-LANCL1 Western Blot. More on the design: from tissue; host or cells: rat spinal cord, microsomal fraction. As for the experimental part:
To confirm the LANCL1 enrichment observed by mass spectrometry sequencing pull-down experiments, commercial antibodies to LANCL1 (polyclonal rabbit anti-LANCL1, PA557107 from Invitrogen) were used to identify the presence of the LANCL1 in nerve microsome preparations. Briefly, rat spinal cord were lysed in lysate buffer, (sodium phosphate buffer 5 mM pH7.4, sucrose 0.32M+protease inhibitors (cOmplete ULTRA tablets from Roche, mini easy pack, 05892970001)). All the following steps were done on ice. The samples were homogenized, and the total extract centrifuged at 10000 g during 20 minutes. The supernatant was kept and the lysis step was repeated on the pellet adding 10 ml more of lysis buffer, followed by a new centrifugation step. This step extraction was done two times as described and the supernatants were pooled before centrifugation at 105000 g using the Ti50.2 Beckman rotor for 90 minutes at 4° C. The pellet was kept as a microsomal fraction and stored at −80° C. […] Images acquired with the ChemiDoc™ MP Imaging System were analyzed with Imagelab software (Bio-Rad).

Assay [2] deals with T2, LANCL1. Kind of assay: Mass spectrometry of excised gel bands from PAL cross-linked homogenates (PALMS). More on the design: from tissue; host or cells: nerve tissue homogenate of neuropathic animals. From the text:
Having identified at least three molecular weight bands as representative of the potential targets, the 12-15 kD, 37 kD and 50 kD regions of the gel were excised, subjected to limited proteolysis and analysed by mass spectrometry to identify peptides from proteins that were differentially enriched. The detection of at least two different peptides from a protein that is enriched in the LAT9991-PAL cross-linked samples when compared to (i) the un-crosslinked samples and (ii) LAT9991-PAL in the presence of excess LAT8881 (SEQ ID NO:1; YLRIVQCRSVEGSCGF) was considered a positive signature. LAT9991-PAL, LAT9993-PAL and LAT7771-PAL were also used. LAT9993 (SEQ ID NO:41) has the amino acid sequence SCRSRPVESSC.

Entries after “also recorded” stand apart in the source; their conditions may differ. Bridges are numbered along the chain shown (N, C = ends). Where no end group is shown, it is not given here.

T2 sequence (Q9QX69 whole entry): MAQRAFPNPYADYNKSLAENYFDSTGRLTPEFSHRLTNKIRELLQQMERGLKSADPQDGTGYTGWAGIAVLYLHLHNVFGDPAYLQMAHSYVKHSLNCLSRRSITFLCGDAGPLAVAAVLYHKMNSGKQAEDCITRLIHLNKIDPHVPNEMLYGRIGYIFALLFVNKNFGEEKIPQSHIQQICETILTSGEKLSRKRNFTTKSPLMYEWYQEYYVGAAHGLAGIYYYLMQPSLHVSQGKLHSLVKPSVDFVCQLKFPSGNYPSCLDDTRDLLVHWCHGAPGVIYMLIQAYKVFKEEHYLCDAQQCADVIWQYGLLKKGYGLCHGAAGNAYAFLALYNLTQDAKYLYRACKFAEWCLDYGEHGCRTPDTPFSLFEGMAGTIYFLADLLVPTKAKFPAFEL

“LAT9991-PAL: cyclic peptide of SEQ ID NO:12 (LAT9991) conjugated to the PAL (Photo-Activated Labelling) grouping (CRSVEGSCG; disulfide 1-8 (inferred); also: PAL group on N-terminal Cys-Arg part)”: the “Binding of PAL probe to recombinant LANCL2” value with human recombinant LANCL2 (in-gel fluorescence after UV cross-linking) is “binds”. For the same substance, in the assay with LANCL1 [1] (5 μM probe, rat spinal cord microsomal fraction), the “Detection of LANCL1 in eluates of probe pull-down (Western Blot)” value was “could only be detected in the eluates of LAT9991-PAL samples as a specifically bound protein”. In the assay with LANCL1 [2] (vs un-crosslinked samples (CU) and samples with excess LAT8881 (COMP), 37 kDa band), the “LANCL1 bound / enriched in PAL probe cross-linked samples (mass spectrometry)” value is on record as “met the arbitrary statistical criteria for a “hit”; also recorded: enriched by several fold-changes; also recorded: bound to LANCL1”.
Turning to “YLRIVQCRSVEGSCGF [LAT8881, a cyclic peptide fragment of human growth hormone]”, the “Inhibition of LAT7771-PAL binding to recombinant LANCL2 by excess competitor” value with human recombinant LANCL2 (probe LAT7771-PAL (as in FIG. 10 legend), excess LAT8881) is given as “inhibited”. For the same substance, the “Inhibition of LAT9991-PAL binding to LANCL2 by excess competitor” value in the assay with human recombinant LANCL2 (probe LAT9991-PAL, excess LAT8881) is given as “inhibited”. In addition, the “LANCL1 level in LAT9991-PAL pull-down eluate in presence of excess competitor” value in the assay with LANCL1 [1] (50 μM competitor, 10-fold excess over LAT9991-PAL) is recorded as “reduced”. In addition, in the assay with LANCL1 [2] (probes LAT9991-PAL, LAT9993-PAL, LAT7771-PAL, excess LAT8881), the “Inhibition of PAL probe binding to LANCL1 from tissue homogenates by excess competitor” value is reported as “inhibited”.
